Test results from the NTF2 design screens of Basanta et al. (2020).

experiment: protease stability score; higher = more stable; yeast display proteolysis, trypsin and chymotrypsin;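 note: relative to predicted unfolded state with 0 unfolded-like and 1 meaning tenfold more protease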

Sequence	protease stability score
DELRKESEDLVRILIEIFHTGDEDVFKRMADPHVRLIAENRIVVGRDLVSRFFRHLLEKYPNVTDHVDVRRIILVGDWLHIDLRIDIEIGDKRHEHDVKIHVRKIDGRWVITEIHVK	1.85
SEEEDTMRHLLHLLIEWELTGDWKNWQKLADPRTRIEINGRELHGRETYAEFIREVLEQFKNLVIHDFIMHDVKVFDGRVIVDGYVDTEINGVRTHIRVEFILIVVNGKLRRVSRIVR	1.57
REIEKSLEESLKMWLENLVTGDERQLSELVDPDAKLEVGDKHHVGMETISHMIRHMRIESIEIKSIRIFDGRAEIHAYVLGNINGQRKDLNEKLHWEKINGRWEVRKILLE	2.13
HESEEYAHRVSKDFDRAMRTGDWLRLLELIDPNARLHVGEFHVHGMEDIEKWIRHFLHRVDVIHIRVRDMRVQGEKVDVDYEIEERQGDKRRHYESRTIILKIDGKWHIKEIHIH	1.14
DEIEHAVRLAYERWLHEFETGDEEETLRNADPDTMIVINGRHLHGREHFTRWLKRIDHQHMHHEDFTHIDHQGDKLHLNVHVSIEVEINGVRYVLEHENEIVQTKIDGQWILTYIIIR	1.25
DEDEERKHKILEIWLHSLETGDETKLEEMVDPNVRIEFNGREHHGWEHFLEFVRVFGAKVLHLEDEREDGNKIIHHIVVHVNGRRHTLIVIAHKVNGRWVISSIRFE	1.45
DEDKDKVRRWAEDFIRDLTTGDFDSLRREADPNYRIEVNGQDHHGMEFHLWVLDHLGLDNIHTELRDSEVQGDKAHNDIRITYNGKEMTVILIVDKVNGKWFVRKIRIE	1.72
DEDEENTRKLLESYIRVFRTGDEDRMIELADPDVRLKIDGVTRHGREDWMRHWLNLVERMGANVSELTRFDVFDGQVHSHHKLVQGDKERKMHLILIKVDGRWFLHEISEQ	0.157
TELETELEHMVKIVIDSLLTGDEKKLHKQADPHVRHSQGEFEWHTREAMIRFFFELGIDHMTLTEIHLQGDFVEMHIENNINGRRVELRIHWHKFNGKWINRRTHVRHI	0.698
SEDRENFHRFWKELLRYYLTGDEDALTRMFDPNAQMIYGDKHYHGREVLEFIHHQVDVFRSVEIESSRSINGVVIIHVRLNGEYNGQQENTEFTLVFEKINGRWRIKQVRSE	1.11
DENRQDLEHFHKVLLKLLETGDENMIARLADPNVREDVNGVDNHGMKDLERTLREIHERVDHIHHVHIHRVDVINGRAHLDGTLRGHVNGVSFQHRETVIYLKFNGRWVLHSVHLK	1.2
SEVEERFKEEMHRQFENSETGNEDEVAKYFDPDARMHIDGKEIHGRDEVKRILSEWRLTHITLRDFRIVGNKIHTDAEVVIEIGDKKIRYRVHIIQYKVNGQWRVESFEVK	0.88
TEQDEIAERVAREIMTMLLTGDWQRLRELADPHVRTIIDGVHVHGWDRMIEVLEVLHREIRIHDIREHSIKVYNGRVEIITHNDGEIDGQRVESSERHDIIIVNGRIKTIRLDIR	1.34
DEDHRIAHEIFRLLFHLLSTGDEDIFNQMADPHVQSIVGDKEFHGREQLRKAWHEIRVHRSDIHSVEIRVINGRVRNDMRIRYDGEINGKKIDTDIHMEVVIDKYNGRWIIRSVSIEII	2.16
REEEERLKDLERVMRELWRTGDEREMSRNADPHVKLSVGDKEFHGRELFTKWASRVDHYDHLIIRDIETQGDKVRMYVETEMDIDGKDVKTESFILAVKIDGRWILRSLELR	0.387
SEEHHIIHKFLEDFLRSWITGDEKSMKELLDPHAKVDIRVNGRDVHPHGWEFLEWYKRFFKNAQFRVHDIDVQGNKVHLITEVVVNGQKEEMHIHLQVVDGRAERVETRIH	1.9
DEEERRLHEIAELVVHRLVTGDEDTLNKLFDPNTRFELIFNGQNFELHGREALMEWLQRRRNVREKHEVRRIEYQGDKLHVDGTLIIEYGDKRRESEVDLRIRVVNGRVHTIDLRLK	1.48
SEELEHAERLDRMIAKAYSTGDEDVFRELLDPHVKIHDEDHHSHGMEWIRYHIERFKNVRSSVEVRRYHVQGNKIFSDGVFRLQVGDKDITRRVLFVVLKVDGRWIMESIHIE	1.08
SEEEHMLEAFFEDVLQLVMTGDEHRLKHLFDPNVRVETEHEHFHGRELFLQRMLEIRIHDFHIHDFEVQGDKAHVDGRVEGTIDGRTNHWTFTLILEKIDGRWLANKVTWH	1.55
DEEEKLARHWMEVWHHAEHTGDFEEFNRLLDPHTRIEINFDGQRVELHGRHEYERFFRELGMEIRRIRLRDLHVVDGKWHIDGERDGEYDGKRIDSQIIIIYRVIDGRVKEIRKDDR	0.816
DLEHEITRRVLWELTESSKTGDFDRRLELLDPHARVNIDGKDFHGREEVEYLLREMEKFWGHDRVYLDVKEIEIQGDKIDVDSELTINGKKRKARLIVVKVNGRWVIHSIEVE	1.04
DEDDEDTRRLLKLLSDAEETGDEELLRHLADPHVRVHVGDKEWHGWDAFVRFLRHIRIETFHVRRIRVQGDKVDVDGQTVVTINGRRHELKTTIILIKIDGQWVIEKLTIH	1.79
TEREEENRIARQLFEHDWETGDEDSIHRLADPHALLTDENEKLHGREDVTDWIIKVSRKYKNLQFRVTDQELQGNKLIIYSTSKYNGRTFHLIFFVLKVDGRWHFHHMRIE	1.36
DEDTKMSEEALRILVEIWRTGDEDRFLELADPHTRILINGRELHGMEFFVTWLRKVKNLKIERIQLDHVRFIDGRAELETTIRLRYGDKHDDLTFKFISDKFDGRWVLSEIIII	2.15
DEDKEALHEILRLIAEAWNTGDEHTLRRLFDPDVRVEVGDKEFHGREEVDRWFRHLRIEHVETRLHDTRSQGDKLLSDTRLHFVGEVNGVHFNRSTETDLFVHKVDGRWRIESIRVR	1.03

Sequence	protease stability score
KEEEEFAKHILHMLRYLWETGDEEEFERMADPNARLIQGDKHFHGREEITKSVKELRVRHFEEKHIHYQGEKSLIIGHVDGEINGQRHEIDVIIRLEVVNGKLKRIRIEYR	0.239
TEDQEQAEEHFREEIHHWRTGDEDQLRRLMDPNTRIEIGDKVLHGREHAELFLRRYKGLKIDRFEIRHRDHQGDYVILHTHFRGEVNGRDFENTVQLVVLKVDGRWFLKYIRVE	1.64
SEEEKLFKIMMKLLLEQTETGDEHFLKHQFDPHARLEIGEFDLHGWEFMDEHVRHWRYRDMELRRLEFQGNKIETRGLIIGEYNGRRLEISVRMIVLKIDGKWIIKHVHIH	1.42
SDEDKELEHVMKKFEDALSTGDENTLYSLLDPNVKLEIGDKEIHGMEEFVRVMKRHLHELGAKFRSITIEHWNIIGEKVRLHSKIILDFNGRDIFLNTHIVMFKFDGRWIFETFKIQ	2.23
DEDEQELRDALERWIRAMYTGDEKTLRDLIDPNVLIDINGKIIHGRHKLSQHLREIRIHHFEMHIEDYRFQGDKVHMDVREKRHWVIGDKHIDESRSVTLIIVKFDGRWLMHRVIVH	1.19
SEEEQLALEIARRLVRSILTGDEHEIHRLMDPHVRTNWNGQELVGREEWDRFNHEMRIHELRIREFDVEVFNGRVESRFRTETRMTFDGREVNEETKLIVILDKVDGKWHLRHVEFRIH	0.651
SEDEELVERAIRWLESILQTGDEHVLEHFADPHVRVTVGDYDDHGRHAIHTVWRLMGVNHSEIKRKDIQVVNGVIYIHLDGVSRVNGRNFKLSIHVILEKIDGRWHVRTLHVDIK	1.05
SEEHRLSEEIARIEVHAWITGDEHILHELLDPNTRLEVNGREYHGREIVLKMIREFWENLGAKHREVKRVRIELIDGRVTTHIKDKVSQGDKELEIIIEIITEKVNGRWVIRNMRIELR	2.7
DEEREKVIRFLERFQESSRTGDEETLHRLADPNVKLTVDGRELHGREVMVRYAIEWRIEDVEPKRYTEQGDKLILHVRIHTTIGDKHEVREVDLFVRKIDGRWIMEEFRVR	0.96
DELWELAFFIMKILLHLHLTGDEEMWSSYADPNVRFTLRVGDKEVKRHGMEDVEKFQTELEREIRVDHFDERRTHYYNGRARVDGHIDGLVNGRPVHFRTELHVHTIDGVVREVEIIIE	-0.045
SEVEEEMEEILKKLLTAFRTGDEKTLEDLLDPHVRLEIGDKTHVGWRDIAEFLRRHIERVDHMRINIDHMEIQGEKIHIDGTLHFWIGDKRHHEKVHLIFVIVNGRLKKIHIHKI	2.64
DEEEERVIHIMHLFLEHISTGDEDKVKHLMDPNVRVFIGNKQHVGMHEIIKHLREWRIELDDVRTEEVRIQGDKLHLNGRLHVTLEFNGRRIRTTVRTTNIFRKVDGRWILEAIHID	1.58
DEEEKAVKHAVERFVESTQTGNEHKLNELMDPNVRIDFNGVELIGREWFSKLLSEIRSDRFHIHDIRLQGEKADNDTREKGHVDGRTTEMTVRLIWIKFDGKWRLETVIFQ	1.01
DEEKKEILEIARRVIESLLTGDWEEDHELADPNVLYIQGDKEVHGMETTWRIIFELRHQIKGMTEHIHIRRVEIVNGVAHLDTELRLNVNGREVTHETHVHIFLYNGRVKRIEVRIK	1.48
HEDEELSRKAVELMLELIMTGDEDTIRSLADPDTRIEINGRHHHGRHLMVEFMREWFRRYPNVQLDVHSLDIDLFNGRVLIQINLEIRIGDKHHRVRINIHADKVDGRWRLKEVRIEIK	1.5
DEHKHIAEEIARIVLENWMTGNEEIFKKMADPHVRVHINGKKSHGRDHYHELWRLLFEHIRIEHLHIRHMDKQGDFVRVEVEVTGHIDGRRETVESEFRIRTVNGVLRDVEIHFH	1.2
EEEKHLLRRIVRELTESERTGDEDHLDKLLDPHARTNVNGVDFHGREDWRKWTEEFFRRVDHIEFRIEDIKIINGVAIVDTRITMHIGDKHIHFELEIKNVIIDGRVKELRIKFK	0.91
DELEETAERMMKQFTDMWRTGDEEYFWRLADPHVRVNIDGVTRIGREESSEMFERWIRHIRLKSVHIEEVEIQGEKSHSDGRLNEIVDGKEEIVHVTINLIVINGRIHSVEFERE	0.765
DEEEETLRWVKELLKHLSKTGDFEKIVNYMDPDVRLNVDGVELVGMHHLERLAKEIRFKIHDLHPRRERIFDGKIQMDVEIDRIIHYGDKTTRERTTIIIIFEKVNGRWLIHTIHVH	1.17
DESTKAAEDIFEIIREMLETGDEETTRRLFDPDAKIIIGDKEIHGRENIELFMRLWLKQFDHVHDMTIRRMEIQGDKVIMDTEIHGTINGQRRTIRTRWIVVKINGKWSIHEVYFT	2.02
DELEKVMHDMADLILHLYLTGDWETFLELADPNVKITIGDKEHHGWKSWKRLLEEELRRVDHIDSKLKRVIAIGDKAHVDGHMEINVNGREYRLDVHIIYVIVNGRHKEIEIHSE	1.31
DETTKLTEELLRLIWEVLITGDEHLFERLADPHVRVDEIYGDKRIELHGRERVSTRLHELRIKRVELKEIEVFNGRSHANTHVNGHIDGVTFRSDTRWEFVMIDGKLEEVRRKIE	0.597
DEWDNAREELKRMLFKLLETGDEDSFKRLIDPDARQHIDGQEIHGRERVYEIFYRIKNMTVHHIEDKHYEIVNGQIHSDVRIDMIVNGKRITLNIRVVMIKIDGKWYLHSEKIS	1.6
SEEKEKAEHVVRQFLRVILTGDWERIEELMDPHVRFRVDVDGQTLHNHGRERLIDWYAKVKGLRNNLREIHIFENRAELHFESTIGDKHFKERIEIHIVDGRFKSVTFQFE	1.42
DEEEERARHWIERFVRAVLTGDWEHILRNADPNVRLHVGDKEIHGRERMIETFREFWERYPGVRIKIHQVEIQGEKSHLDGEIRFDGRRFRVEFEVVIINGKIHELHIRIH	2.62
